{"source": "paper PMC4067742", "about": "“Direct Observations of Amyloid β Self-Assembly in Live Cells Provide Insights into Differences in the Kinetics of Aβ(1–40) and Aβ(1–42) Aggregation” (Chemistry & Biology, 2014)", "tested_on": "trypsin", "test": "Fluorescence lifetime after trypsin treatment of the labeled peptide", "assay_type": "physicochemical", "details": "trypsin-treated monomeric peptide, cleavage into short fragments; FLIM; mean ± SD", "text": "For the HF488 dye to function as a direct reporter of amyloid formation in vivo, its fluorescence lifetime must respond to the conformational changes associated with amyloid formation but remain largely unaffected by extrinsic factors, such as the solution conditions that the Aβ peptides may encounter in the living cell. […] That is, it is insensitive to pH changes in this range. […] Furthermore, the fluorescence lifetime of the unconjugated HF488 dye (4.0 ± 0.1 ns) is longer than that of the Aβ-conjugated dye (3.7 ± 0.05 ns), perhaps as a result of interactions between the dye and the polypeptide chain in the latter case ([Chen et al., 2010]). […]\nAll FLIM experiments were carried out using HF488-labeled Aβ peptides, and images were recorded by time-correlated single photon counting (TCSPC) using a confocal microscopy platform built on an Olympus Fluoview FV300 confocal scan unit. […] The excitation beam was reflected onto the sample with a 20/80 broad bandwidth coated beam splitter so that 20% of the excitation light passed on to the sample and 80% of the fluorescence signal was reflected toward the confocal pinhole. The fluorescence light was passed through a 515-nm Semrock long-pass filter (Laser 2000) and passed onto a fast photomultiplier tube (PMC-100, Becker & Hickl). Lifetimes were recorded using TCSPC circuitry (SPC-830, Becker & Hickl). […]"}
{"substance": "^HF488Aβ(1–40): Synthetic 40-residue amyloid β peptide labeled at the N terminus with Hilyte Fluor 488, purchased from Anaspec", "values": [{"measurement": "mean fluorescence lifetime after trypsin treatment", "result": "4.0 ± 0.1", "unit": "ns"}]}
